Measured values: US20240317847A1 (Bayer, published 2024)

Legend:
human IL-11 [1] = biological target: T1, human IL-11 (human, UniProt P20809 22-199); experiment: cell-based or functional assay
T1 sequence: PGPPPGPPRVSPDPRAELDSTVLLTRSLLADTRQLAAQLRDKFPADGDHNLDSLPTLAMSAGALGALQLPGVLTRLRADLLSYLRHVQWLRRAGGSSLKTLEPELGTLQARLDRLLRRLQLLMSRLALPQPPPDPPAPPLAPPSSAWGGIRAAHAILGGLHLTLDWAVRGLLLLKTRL

rat IL-11 [2] = biological target: T2, rat IL-11 (rat, UniProt Q99MF5 22-199); experiment: cell-based or functional assay
T2 sequence: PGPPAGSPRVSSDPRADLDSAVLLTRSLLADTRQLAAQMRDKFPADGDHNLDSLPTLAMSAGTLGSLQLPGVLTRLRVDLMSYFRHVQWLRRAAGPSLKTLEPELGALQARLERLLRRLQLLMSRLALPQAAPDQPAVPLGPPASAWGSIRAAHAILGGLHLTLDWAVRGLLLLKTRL

murine IL-11 [3] = biological target: T3, murine IL-11 (mouse, UniProt P47873 22-199); experiment: cell-based or functional assay
T3 sequence: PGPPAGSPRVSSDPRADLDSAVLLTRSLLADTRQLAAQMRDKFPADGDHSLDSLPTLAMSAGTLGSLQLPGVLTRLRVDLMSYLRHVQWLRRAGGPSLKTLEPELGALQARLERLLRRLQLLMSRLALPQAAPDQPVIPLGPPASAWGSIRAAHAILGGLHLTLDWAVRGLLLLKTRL

cynomolgus IL-11 [4] = biological target: T4, cynomolgus IL-11 (cynomolgus, UniProt P20808 22-199); experiment: cell-based or functional assay
T4 sequence: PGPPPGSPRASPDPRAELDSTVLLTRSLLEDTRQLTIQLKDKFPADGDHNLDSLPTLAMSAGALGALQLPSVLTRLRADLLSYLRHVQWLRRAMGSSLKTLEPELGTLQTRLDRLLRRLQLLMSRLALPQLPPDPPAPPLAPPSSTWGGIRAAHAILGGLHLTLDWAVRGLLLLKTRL

human IL-11 [5] = biological target: T1, human IL-11; experiment: Di-complex ELISA, competitor murine IL11RA-Fc on coated IL-11
murine IL-11 [6] = biological target: T3, murine IL-11; experiment: as above
human IL-11 [7] = biological target: T1, human IL-11; experiment: SPR 37 C, antibody captured, IL-11 as analyte
rat IL-11 [8] = biological target: T2, rat IL-11; experiment: SPR 37 C, antibody captured, IL-11 as analyte
murine IL-11 [9] = biological target: T3, murine IL-11; experiment: SPR 37 C, antibody captured, IL-11 as analyte
cynomolgus IL-11 [10] = biological target: T4, cynomolgus IL-11; experiment: SPR 37 C, antibody captured, IL-11 as analyte
human IL-11 [11] = biological target: T5, human IL-11 (human, UniProt P20809 22-199); experiment: cell-based or functional assay; remark: listed apart in the source
T5 sequence: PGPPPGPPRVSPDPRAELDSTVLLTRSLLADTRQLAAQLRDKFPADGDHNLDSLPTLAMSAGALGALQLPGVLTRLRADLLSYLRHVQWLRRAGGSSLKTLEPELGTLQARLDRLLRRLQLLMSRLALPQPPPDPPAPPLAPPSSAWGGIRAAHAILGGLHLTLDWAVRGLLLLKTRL

murine IL-11 [12] = biological target: T6, murine IL-11 (mouse, UniProt P47873 22-199); experiment: cell-based or functional assay; remark: listed apart in the source
T6 sequence: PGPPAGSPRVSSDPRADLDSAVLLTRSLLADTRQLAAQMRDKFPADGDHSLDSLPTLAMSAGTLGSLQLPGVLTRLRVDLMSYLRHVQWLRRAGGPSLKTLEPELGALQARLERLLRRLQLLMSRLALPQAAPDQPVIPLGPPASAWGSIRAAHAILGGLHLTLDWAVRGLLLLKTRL

murine IL-11 [13] = biological target: T6, murine IL-11; experiment: Di-complex ELISA, murine IL11RA-Fc binding to immobilized mIL-11, competition
Experimental: In the Di-complex ELISA format anti IL-11 antibodies are tested for the ability to interfere with the formation of complexes consisting of immobilized murine IL-11 (Invigate, e.g., lot #C210819-09) or human IL-11 (Invigate, e.g., lot #C121021-19), and murine IL11RA-Fc fusion proteins or canine IL11RA-human-Fc fusion protein (FIG. 17a, b).
Bispecific antibodies were subjected to the experimental assay procedure described in Example 18 and IC50 [M], respectively efficacy (%) were calculated accordingly.

human IL2Ra = biological target: T7, human IL2Ra (human, UniProt P01589 22-240, limits assumed); experiment: ELISA on coated IL2Ra, signal ratio to isotype control at 1E-07 M antibody
T7 construct: coated on the ELISA plate; also called IL-2 receptor alpha
T7 sequence (looked up): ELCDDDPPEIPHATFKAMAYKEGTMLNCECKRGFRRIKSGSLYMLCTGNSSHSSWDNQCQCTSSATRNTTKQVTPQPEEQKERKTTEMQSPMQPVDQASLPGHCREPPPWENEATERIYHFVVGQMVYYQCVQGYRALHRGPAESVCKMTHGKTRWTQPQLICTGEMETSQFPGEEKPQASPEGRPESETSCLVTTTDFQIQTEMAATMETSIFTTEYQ
Experimental: IL2RA (Peprotech, Germany, #200-02RC) was coated at 1 or 0 μg/ml (buffer only control) in 30 μl coating buffer (Candor, #113500) per well on a 384 well microtiter plate (Maxisorb, Nunc, #460518) over night at 4-8° C. After two washes with 50 μl/well washing buffer (PBS+0.05% Tween, pH 7.4), the plates were incubated for two hours at room temperature with 50 μl/well SmartBlock (Candor, #113500). After blocking, the plates were washed three times with washing buffer. Then, a dilution series of the respective antibody (1E-7 [M] down to 2E-13 [M]) in PBS+0.05% Tween, 10% SmartBlock were added in 30 μl to the microtiter plate and incubated for 90 min at room temperature. After three additional washes, 30 μl anti mouse IgG HRP-conjugated antibody (Biotechne, HAF007), diluted 1:1000 in PBS+0.05% Tween (pH 7.4), were added per well and incubated for one hour. After three additional washes, a mixture of Amplex red (Invitrogen, #12222, 10 mM stock solution in DMSO) 1:1000 diluted in PBS and H2O2 (30%, Merck, #107209)) diluted 1:10000 in PBS were added as substrate with 30 μl per well and incubated for 20 min in the dark. Relative fluorescence was measured with a microtiter plate reader at 535/590 nm.
Bispecific antibodies were subjected to the experimental assay procedure described in Example 20. Ratios of the signals generated at an antibody concentration of 1E-07 [M] by the respective bispecific antibody versus those of an isotype control antibody were calculated and are shown in Table E29. The bispecific antibodies show no binding to IL-2 Ra.

human IL-11 [14] = biological target: T5, human IL-11; experiment: Tri-complex ELISA, hIL-11 + mIL-11Ra-Fc + hgp130-Fc, inhibition of complex formation
Experimental: (§1) In the Tri-complex ELISA format IL-11 antibodies are tested for their ability to inhibit the formation of a complex consisting of murine or human gp130-Fc fusion protein, with murine or human IL-11, and a murine IL11RA-Fc fusion protein. The assay format was adapted according to FIG. 18 (a, b), depending on whether murine or human IL-11 IgG antibodies were tested.
(§2) Bispecific antibodies were subjected to the experimental assay procedure described in Example 19 and IC50 [M], respectively efficacy (%) were calculated accordingly.

murine IL-11 [15] = biological target: T6, murine IL-11; experiment: Tri-complex ELISA, mIL-11 + mIL-11Ra-Fc + mgp130-Fc, inhibition of complex formation
Experimental: as §1, §2

cynomolgus IL-11 [16] = biological target: T8, cynomolgus IL-11 (cynomolgus, UniProt P20808 22-199); experiment: SPR (Biacore), 25 C, antibody captured via anti-Fc, IL-11 as analyte
T8 construct: Invigate recombinant protein; also called cIL11; Macaca IL-11
T8 sequence: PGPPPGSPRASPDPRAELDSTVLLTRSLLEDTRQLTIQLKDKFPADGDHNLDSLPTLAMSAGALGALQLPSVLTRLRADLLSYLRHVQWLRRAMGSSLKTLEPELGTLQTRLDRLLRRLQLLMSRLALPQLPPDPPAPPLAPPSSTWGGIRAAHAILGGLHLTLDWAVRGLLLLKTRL
Experimental: (§3) To assess the binding kinetics and affinity of anti-IL-11 bispecific antibodies as well as their species cross-reactivity profile, binding assays were conducted using surface plasmon resonance (SPR). […] Antibodies were captured either via anti-human Fc IgGs (“Human antibody capture kit”, Order No. BR100839, Cytiva) or via anti-mouse Fc IgGs (“Mouse antibody capture kit, Order No. BR100383, Cytiva) covalently amine coupled to a Series S CM5 sensor chip (Cytiva) depending on the isotype. The amine coupling was carried out according to the manufacturer's instructions using 1-ethyl-3-(3-dimethylaminopropyl) carbodiimide hydrochloride (EDC), N-hydroxysuccinimide (NHS) and ethanolamine HCl, pH 8.5 (“Amine Coupling Kit” BR-1000-50, Cytiva.). Human, mouse, cynomolgus or rat IL-11 was used as analyte at several dilutions within the concentration range from 0.05-200 nM. For binding assays with only one concentration 200 nM IL-11 was used. The sensor surface was regenerated with glycine pH 1.7 after each antigen injection. Obtained sensorgrams were double referenced (subtraction of reference flow cell signal and buffer injection) and were fitted to a 1:1 Langmuir binding model to derive kinetic data using the Biacore T200 Evaluation software or the Biacore Insight software.
(§4) If no value is reported, there was either no binding or very low binding and multiphasic binding behavior.

rat IL-11 [17] = biological target: T9, rat IL-11 (rat, UniProt Q99MF5 22-199); experiment: as above
T9 construct: Invigate recombinant protein; also called rIL11
T9 sequence: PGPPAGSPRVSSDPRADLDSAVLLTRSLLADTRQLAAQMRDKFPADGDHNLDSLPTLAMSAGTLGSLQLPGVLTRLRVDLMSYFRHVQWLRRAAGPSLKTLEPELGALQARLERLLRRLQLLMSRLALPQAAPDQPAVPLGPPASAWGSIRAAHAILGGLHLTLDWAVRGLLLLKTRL
Experimental: as §3, §4

human IL-11 [18] = biological target: T5, human IL-11; experiment: as above
Experimental: as §3, §4

murine IL-11 [19] = biological target: T6, murine IL-11; experiment: as above
Experimental: as §3, §4

B1: TPP-23552 (antibody, human IgG1, kappa)
heavy: not shown
light: DIVLTQSPASLALSPGERATLSCRASKSVSTSGYSYIHWYQQKPGQPPRLLIYLASNLDSGVPARFSGSGSGTDFTLNIHPLEEEDFATYYCQHSRDLPPTFGQGTKLEIKRTVAAPSVFIFPPSDEQLKSGTASVVCLLNNFYPREAKVQWKVDNALQSGNSQESVTEQDSKDSTYSLSSTLTLSKADYEKHKVYACEVTHQGLSSPVTKSFNRGEC
notes: hIgG1, Kappa; also called BSN 3C6 (WO2019238882)
RGA Efficacy (%) (human IL-11 [1]): 76.7% | RGA IC50 (human IL-11 [1]): 3.7 nM | RGA Efficacy (%) (rat IL-11 [2]): 81.3% | RGA IC50 (rat IL-11 [2]): 8.8 nM | RGA Efficacy (%) (murine IL-11 [3]): 90.9% | RGA IC50 (murine IL-11 [3]): 8.1 nM | RGA Efficacy (%) (cynomolgus IL-11 [4]): 52.4% | Efficacy (%) (human IL-11 [5]): 97.2% | IC50 (human IL-11 [5]): 2.9 nM | Efficacy (%) (murine IL-11 [6]): 98.4% | IC50 (murine IL-11 [6]): 3.3 nM | Kd (human IL-11 [7]): 1.4 nM | Kd (rat IL-11 [8]): 3.2 nM | Kd (murine IL-11 [9]): 1.8 nM | binding result (cynomolgus IL-11 [10]): no binding (tested: IL-11 up to 200 nM)

B2: TPP-20489 (bispecific antibody, IgG1)
chain 1: not shown
chain 2: EVQLLESGGGLVQPGGSLRLSCAASGFTFSHYDMNWLRQAPGKGLEWVGVISYDGSNKFYADFVKGRFTISRDNSKNTLYLQMNSLRAEDTAVYYCARTPGSHFDYWGQGTLVTVSSGGGGSGGGGSGGGGSQSVLTQPPSASGTPGQRVTISCSGSSSNIGNNAVNWYQQLPGTAPKLLIYYDDLLPSGVPDRFSGSKSGTSASLAISGLRSEDEADYYCSAWDDSLNGVVFGGGTKLTVLGGGGSGGGGSGGGGSGVECPPCPAPELLGGPSVFLFPPKPKDTLMISRTPEVTCVVVDVSHEDPEVKFNWYVDGVEVHNAKTKPREEQYNSTYRVVSVLTVLHQDWLNGKEYKCKVSNKALPAPIEKTISKAKGQPREPQVCTLPPSRDELTKNQVSLSCAVKGFYPSDIAVEWESNGQPENNYKTTPPVLDSDGSFFLVSKLTVDKSRWQQGNVFSCSVMHEALHNHYTQKSLSLSPG
notes: scFv-kih-hIgG1
Efficacy (%), Stat3 reporter gene assay (human IL-11 [11]): 102% | IC50, Stat3 reporter gene assay (human IL-11 [11]): 0.31 nM | Efficacy (%), Stat3 reporter gene assay (murine IL-11 [12]): 93.9% | IC50, Stat3 reporter gene assay (murine IL-11 [12]): 1 nM | IC50 (murine IL-11 [13]): 35 nM | Ratio IL-2Ra Binding Signal Antibody/Isotype Control (human IL2Ra): 852 ratio | Efficacy (%) (human IL-11 [14]): 105% | IC50 (human IL-11 [14]): 6.28 nM | Efficacy (%) (murine IL-11 [15]): 94% | IC50 (murine IL-11 [15]): 1.81 nM | Kd (cynomolgus IL-11 [16]): 0.025 nM | Kd (rat IL-11 [17]): 0.0026 nM | Kd (human IL-11 [18]): 0.011 nM | Kd (murine IL-11 [19]): 0.005 nM
